Experimental data reported in PMC4415891, “Adamtsl2 deletion results in bronchial fibrillin microfibril accumulation and bronchial epithelial dysplasia – a novel mouse model providing insights into geleophysic dysplasia” (Disease Models & Mechanisms, 2015).

T1: ADAMTSL2 (a disintegrin and metalloproteinase with thrombospondin motifs-like 2), recombinant (human, UniProt Q86TH1 23-951)
T1 construct: ADAMTSL2, secreted glycoprotein; source: recombinant, purified as described previously (Koo et al., 2007)
T1 sequence (looked up): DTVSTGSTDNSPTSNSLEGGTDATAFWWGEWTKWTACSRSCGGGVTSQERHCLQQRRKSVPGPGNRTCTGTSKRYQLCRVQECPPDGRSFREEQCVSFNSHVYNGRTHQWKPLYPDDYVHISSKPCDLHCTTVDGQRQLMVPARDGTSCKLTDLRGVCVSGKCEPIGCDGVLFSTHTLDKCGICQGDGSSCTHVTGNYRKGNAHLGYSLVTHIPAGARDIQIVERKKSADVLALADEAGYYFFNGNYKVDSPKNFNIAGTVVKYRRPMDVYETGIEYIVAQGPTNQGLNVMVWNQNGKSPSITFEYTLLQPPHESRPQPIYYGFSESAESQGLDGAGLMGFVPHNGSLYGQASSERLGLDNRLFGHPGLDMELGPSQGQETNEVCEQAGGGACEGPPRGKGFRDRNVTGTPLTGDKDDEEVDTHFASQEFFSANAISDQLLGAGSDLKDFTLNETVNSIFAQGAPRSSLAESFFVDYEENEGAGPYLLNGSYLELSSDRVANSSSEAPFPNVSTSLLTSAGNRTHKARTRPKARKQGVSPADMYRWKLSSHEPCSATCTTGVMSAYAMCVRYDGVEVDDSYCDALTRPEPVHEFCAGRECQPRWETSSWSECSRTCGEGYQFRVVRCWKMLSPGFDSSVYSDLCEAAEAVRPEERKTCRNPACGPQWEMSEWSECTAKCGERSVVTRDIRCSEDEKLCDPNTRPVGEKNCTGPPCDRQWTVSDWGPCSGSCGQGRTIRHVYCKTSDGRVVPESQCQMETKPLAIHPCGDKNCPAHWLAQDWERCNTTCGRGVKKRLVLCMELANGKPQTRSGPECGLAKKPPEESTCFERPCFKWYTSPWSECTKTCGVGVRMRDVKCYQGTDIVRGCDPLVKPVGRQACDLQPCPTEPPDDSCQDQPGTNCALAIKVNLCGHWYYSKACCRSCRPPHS


Target: T1, ADAMTSL2 (a disintegrin and …)
Experiment: SPR; ADAMTSL2 immobilised by amine coupling on a CM5 chip (about 1500 RU), fibrillin fragments injected; BIAcore 3000; 25°C; 10 mM HEPES pH 7.4, 150 mM NaCl, 2 mM CaCl2, 0.005% surfactant P20; 20 ul/min; n=2
Settings: both partners purified

Row | Binder | Kd
1 | C-terminal half of fibrillin-1 (FBN1), recombinant fragment (domain or fragment) not shown | 8 nM
2 | N-terminal half of fibrillin-1 (FBN1), recombinant fragment (domain or fragment) not shown | 14.3 nM
